Here are results for 2 molecules from publication PMC10692165, “Structural basis of antibody inhibition and chemokine activation of the human CC chemokine receptor 8” (Nature Communications, 2023).

Usually Kd stands for a measure of binding affinity in units of concentration. The low end stands for higher affinity, the high end for lower affinity. By Ki is commonly meant the dissociation constant of the complex between target and ligand, obtained from inhibition or displacement.

Assay [1] addresses human CCR8 on CHO cells stably expressing human CCR8 (CHO.hCCR8) (human) (UniProt P51685). The assay is described as follows: real-time cell binding (LigandTracer); hCCL1^AF647 added at 0.5, 10 and 50 nM in sequence to CHO.hCCR8 cells at room temperature, then dissociation in medium; signal of CHO wild-type cells subtracted; one-to-two step model.
In assay [2] the target is T1, human CCR8 on CHO cells stably expressing human CCR8 (CHO.hCCR8) (Homo sapiens, UniProt P51685). Briefly: cell-based or functional assay.
The target of assay [3] is T1, human CCR8 on CHO cells stably …. Briefly: radioligand binding; unlabeled mAb1 (from 50 nM, 1:3 dilutions) against a fixed concentration of 125I-mAb1 on CHO.CCR8 cells, room temperature, 18 h; heterologous one site-fit Ki competitive binding model; three independent experiments, not averaged. The conditions noted are these: one partner purified.

Values joined by “and” are separate entries in the source; they are usually repeats but may differ in a detail not shown here. Equal entries are not always repeated.

T1 sequence (P51685 whole entry): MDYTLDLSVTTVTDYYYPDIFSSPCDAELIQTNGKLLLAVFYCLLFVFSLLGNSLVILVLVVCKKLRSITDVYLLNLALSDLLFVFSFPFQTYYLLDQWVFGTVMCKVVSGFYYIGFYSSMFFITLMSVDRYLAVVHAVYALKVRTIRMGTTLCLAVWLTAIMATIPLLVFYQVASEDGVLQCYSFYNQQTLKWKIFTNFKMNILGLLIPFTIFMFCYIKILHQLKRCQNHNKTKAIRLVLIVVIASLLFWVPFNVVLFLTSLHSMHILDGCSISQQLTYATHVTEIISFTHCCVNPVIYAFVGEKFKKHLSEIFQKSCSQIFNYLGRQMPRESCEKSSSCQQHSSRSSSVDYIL
Chain of human CCR8 on CHO cells stably expressing human CCR8 (CHO.hCCR8) (human) (P51685 whole entry): as above

On to “AlexaFluor647-labeled human CCL1 (hCCL1^AF647) (from UniProt P22362 24-96) (ligand)”, for which, in assay [1], the KD of the high affinity binding event (slow on, slow off) is 0.7 nM; the KD of the low affinity binding event (fast on, fast off) turned out to be 15 nM; the dissociation constant (Kd) came to 1 nM.

B1: anti-human CCR8 antibody mAb1 (IgG) (antibody, V domains shown)
VH: QSVEESGGRLVTPGTPLTLTCTVSGFSLSNYAMIWVRQAPGEGLEWVGTISLGGYTYYANWAKGRFTISKTSTTVDLKISSPTTEDTATYFCARARWSTDSAIYTYAFDPWGPGTLVTVSS
VL: AYDMTQTPASVEVAVGGTVTIKCQASQSISSYLSWYQQKPGQRPELLIYKASTLASGVSSRFKGSGSGTQFTLTISDLEAADAATYYCQQGYTSSNIDNIFGGGTEVVVK
notes: variable region and CH1 as the heavy chain of Fab1, deposited in PDB 8TLM; as the light chain of Fab1, deposited in PDB 8TLM; Raised in rabbits; a humanized version was also made; the IgG was detected with anti-human IgG (Fc) secondaries; In the radioligand assay the tracer was 125I-labelled mAb1 (random tyrosines); also called anti-hCCR8 mAb1; anti-CCR8 mAb1
Regarding B1, in assay [2], the “Ca^2+ influx (FLIPR) in CHO.hCCR8 cells: inhibition of the signal induced by a sub-maximal (EC80) concentration of CCL1 (blocks CCL1-CCR8); apparent IC50” value was determined as 57.9 nM. In addition, in assay [3], the affinity, expressed as Kd, was 0.0284 nM; the Ki was 0.0414 nM and 0.0555 nM.
